The target in data set [1] is TupBlac (Tupanvirus deep ocean MBL fold protein AUL78925.1) (Tupanvirus deep ocean, UniProt A0AC62AAK8). Put plainly: LC-MS of penicillin G hydrolysis and benzylpenilloic acid formation. It counts as biochemical. Conditions: sulbactam 10 µg/mL, penicillin G 10 µg/mL, room temperature, up to 48 h; inhibition qualitative, mechanism not determined.
Data set [2] concerns O=C(Cc1cccs1)N[C@@H]1C(=O)N2C(C(=O)O)=C(/C=C/c3ccc([N+](=O)[O-])cc3[N+](=O)[O-])CS[C@H]12. In words: purified protein. Particulars: PBS pH 7.4, promiscuous beta-lactamase activity.

As for `CC1(C)[C@H](C(=O)O)N2C(=O)C[C@H]2S1(=O)=O` [sulbactam], in data set [1], the “LC-MS of penicillin G hydrolysis and benzylpenilloic acid formation” value was “both penicillin G degradation and benzylpenilloic acid appearance were inhibited by sulbactam”.

As for “TupBlac (Tupanvirus deep ocean MBL fold protein AUL78925.1) (Tupanvirus deep ocean)”, in data set [2], the Km was 160 ± 5 µM and the kcat is recorded as 8.8 × 10^–4 ± 8.5 × 10^–5 s^−1.

The Km is the substrate concentration at which the rate is half of its maximum.

The values above are taken from PMC7729979, “A protein of the metallo-hydrolase/oxidoreductase superfamily with both beta-lactamase and ribonuclease activity is linked with translation in giant viruses” (Scientific Reports, 2020).
